# From patent US20110059504A1 (GENERAL HOSPITAL, published 2011)
# Numbering of substitutions follows the chain as printed. Numbers in names are those of the source.
# B1: 39633-G1 (designed binder)
# chain: MTIPEIIIKVRGTQVVGSDMTVIVEFSNPFKETLRNVWVHLDGPGVTRPMKKMFREIPPKTTVQWEEVVRPWVSGHRKLIASMRTQYLIHLYGELDVQIQRRDYKDDDDK
# notes: group M1-A50; V91L
# B2: 45927-E1 (designed binder)
# chain: MTIPEIIIKVRGTQVVGSDMTVIVEFTNPLKETLRNVWVHLDGPGVTRPMKKMFTGILQWSTVQWEEVVRPWVSGHRKLIASMSPHAWWQHHGNFSVYGELDVQIQRRDYKDDDDK
# notes: group M2-Aext
# B3: 45927-A10 (designed binder)
# chain: MTIPEIIIKVRGTQVVGSDMTVIVEFTNPKRDTSVWLRNVWVHLDGPGVTRPMKKMFFTIGYPSTVQWEEVVRPWVSGRRKLIASMSPSILSKGNIGLGVYGELDVQIQRRDYKDDDDK
# notes: group M3-Aext; H76R (wild type scaffold numbering)
# B4: 45927-A12 (designed binder)
# chain: MTIPEIIIKVRGTQVVGSDMTVIVEFTNPLRVSEQTLRNVWVHLDGLGVTRPMKKMFGGIRVHSTVQWEEVVRPWVSGHRKLIASMSYVAEYGEWTHYSVYGELDVQIQRRDYKDDDDK
# notes: group M3-Aext
# B5: 45927-E5 (designed binder)
# chain: MTIPEIIIKVRGTQVVGSDMTVIVEFTNPSNYRPCILRNVWVHLDGPGVTRPMKKMFKMIVYHSTVQWEEVVRPWVSGHRKLIASMSKFELSGTSSRGRVYGELDVQIQRRDYKDDDDK
# notes: group M3-Aext
# B6: 39633-B3 (designed binder)
# chain: B1 chain with S27T, F30L, K31S, E32Q, R35S, N36A
# notes: group M1-A50; V91L
# B7: 39633-F4 (designed binder)
# chain: B1 chain with R55C, P58R, K60N, T61S, T62I
# notes: group M1-A50; V91L
# B8: 39633-E2 (designed binder)
# chain: B1 chain with R55C, I57V, P58R, K60N, T61S, T62V
# notes: group M1-A50; V91L
# B9: 39633-F5 (I3Y, M83I) (designed binder)
# chain: B1 chain with I3Y, S27T, N36S, M83I
# notes: group M1-A50; V91L, I3Y, M83I
# B10: 39633-D6 (designed binder)
# chain: MTIPEIIIKVRGTQVVGSDMTVIVEFTNPFKETLRNVWVHLDGPGVTRPMKKMFCEIRPNSIVQWEEVVRPWVSGHRKLIARCSLSPWHVYGELDVQIQRRDYKDDDDK
# notes: group M3-A50; ΔS82, M83R; also called M020 (clone ID)
# B11: 39633-A5 (V46I) (designed binder)
# chain: B10 chain with T27S, V46I, I57V
# notes: group M3-A50; ΔS82, M83R, V46I
# B12: 39633-G6 (designed binder)
# chain: B10 chain with N36S, C55R, R58P, N60K, S61T, I62T, R82S, C83M, S84T, S86R
# notes: group M3-A50; FG loop printed -TLRPW (one residue deleted), no scaffold mutation printed; also called M18 (clone ID)
# B13: 39908-A1 (designed binder)
# chain: B10 chain with T27S
# notes: group M3-A50; ΔS82, M83R; also called M02 (clone ID)
# B14: 39908-A2 (designed binder)
# chain: B10 chain with C55R, E56D, N60K, S61T, I62K
# notes: group M3-A50; ΔS82, M83R; also called M03 (clone ID)
# B15: 39908-A3 (designed binder)
# chain: B10 chain with N36S, S61R
# notes: group M3-A50; ΔS82, M83R; also called M09 (clone ID)
# B16: 39908-A7 (designed binder)
# chain: B10 chain with T27S, C83M, S84T, S86R
# notes: group M3-A50; ΔS82, M83R; also called M24 (clone ID)
# B17: 39908-B2 (designed binder)
# chain: B10 chain with N36S, C55R, R58P, N60K, S61T, I62T, S84Q, S86L
# notes: group M3-A50; ΔS82, M83R; also called M07 (clone ID)
# B18: 39908-C6 (designed binder)
# chain: B10 chain with N36S
# notes: group M3-A50; ΔS82, M83R; also called M05 (clone ID)
# B19: 39908-C11 (designed binder)
# chain: B10 chain with T27S, C55S, P59T, S61A, I62T
# notes: group M3-A50; ΔS82, M83R; also called M22 (clone ID)
# B20: 39908-D2 (designed binder)
# chain: B10 chain with N36S, C55R, R58P, N60K, S61T, I62T
# notes: group M3-A50; ΔS82, M83R; also called M29 (clone ID)
# B21: 39908-E5 (designed binder)
# chain: B10 chain with T27S, C55S, I62T
# notes: group M3-A50; ΔS82, M83R; also called M56 (clone ID)
# B22: 39908-F5 (designed binder)
# chain: B10 chain with S84Q, S86L
# notes: group M3-A50; ΔS82, M83R; also called M16 (clone ID)
# B23: 39908-H4 (designed binder)
# chain: B10 chain with T27S, C55R, E56D, N60K, S61T, I62K, S84Q, S86L
# notes: group M3-A50; ΔS82, M83R; also called M015 (clone ID)
# B24: 39633-C5 (designed binder)
# chain: B1 chain with S27T, N36S, E56V
# notes: group M1-A50; V91L; also called M34 (clone ID)
# B25: 39908-E1 (designed binder)
# chain: MTIPEIIIKVRGTQVVGSDMTVIVEFTNLWKEALRNVWMHLDGPGVTRPMKKMFREIATMSTVQWEEVVRPWVSGHRKLIASMTLRPWHVYGELDVQIQRRDYKDDDDK
# notes: group M3-A50; FG loop -TLRPW; V39M; also called M04 (clone ID)
# B26: 39633-D5 (designed binder)
# chain: B1 chain with S27T, N36S, R84C, T85E, Q86P, Y87S, I89D, L91V
# notes: group M4-A50; also called 39633-D5/yes
# B27: 39908-F8 (K52R) (designed binder)
# chain: B1 chain with S27T, N36S, K52R, K60E
# notes: group M1-A50; V91L, K52R
# Target: T1, human myostatin (human, UniProt O14793 267-375, biotinylated in selections and radioactive assays (site not stated))
# T1 construct: Phage ELISA used both unbiotinylated and biotinylated myostatin; also called biotinylated human myostatin; myostatin-biotin
# T1 sequence (looked up): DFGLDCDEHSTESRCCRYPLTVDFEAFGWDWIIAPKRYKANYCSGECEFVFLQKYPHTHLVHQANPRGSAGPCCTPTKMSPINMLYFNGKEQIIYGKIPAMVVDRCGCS
# Assay: radioactive equilibrium binding assay
# Experimental: Affinities of selected F13β2 binders to biotinylated myostatin were determined in radioactive equilibrium binding assay (FIGS. 11A and 11B; Table 3). ³⁵S-labeled binder proteins from selection pools and single clones were produced in vitro in a rabbit reticulocyte lysate translation kit (Ambion) and purified on M2-agarose (Sigma). Varying concentrations of biotinylated human myostatin (0-100 nM) or other proteins (protein 1: 100 nM; peptide 1: 250 nM; protein 2: 50 nM) were incubated with a constant concentration of the purified binder protein (1 or 2 nM) at 30° C. for 30 min in buffer B (1×PBS, 0.02% Triton X-100 [pH 7.4]). The receptor-binder complexes were captured by using 25 μl of M280 or Protein A (Dynal) (protein 2) magnetic beads for 10 min at room temperature on a Kingfisher instrument (Thermo Fisher Scientific). The beads were washed five times with 100 μl buffer B, and the amount of ³⁵S-methionine remained on the beads was measured by scintillation counting. Data were analyzed by using the GraphPad Prism software (GraphPad Software, Inc., San Diego, Calif.), fitted with a one-site, nonlinear binding equation. For inhibition assay the binding of ³⁵S-labeled proteins to 20 or 25 nM of biotinylated human myostatin was performed in the presence of varying concentrations of inhibitor (human activin receptor IIB/Fc chimera (R&D Systems, Minneapolis, Minn.) (0-250 nM); protein 1 (100 nM), peptide 1 (250 nM), protein 2 (50 nM); proteins, produced in E. coli, M17, M7, M29, M21, M1-1, WT F13β2 (500 nM)).
Binder,B max,Kd
B1,52%,38.9 nM
B2,4.57%,6.04 nM
B3,8.07%,16.1 nM
B4,3.08%,1.47 nM
B5,8.36%,64.1 nM
B6,6.14%,9.93 nM
B7,28.5%,26.8 nM
B8,21%,27.3 nM
B9,69.7%,32.1 nM
B10,79.6%,20.3 nM
B11,78.3%,19.4 nM
B12,75.1%,19.7 nM
B13,50.2%,12 nM
B14,68.5%,15.2 nM
B15,57.2%,11 nM
B16,109%,20.1 nM
B17,75.9%,27.1 nM
B18,52.2%,19.7 nM
B19,73.7%,17 nM
B20,68.8%,23.3 nM
B21,77.8%,21.9 nM
B22,67.2%,27.1 nM
B23,68.6%,15.8 nM
B24,93%,30.8 nM
B25,40.2%,14.8 nM
B26,6.91%,8.69 nM
B27,45.7%,36.6 nM
